Measurements taken from patent US6319692.

Tested on: phiFSW integrase (Int) (Lactobacillus casei temperate phage phiFSW)
Assay: cell_activity

| Substance | activity (transformants/ug DNA) (chromosomal attB as integration site, attB lost and attL/attR formed in all analysed transformants, in vivo, no direct binding measured) | activity (transformants/ug DNA) (pMSK742 integration into YIT9029 chromosome via attP x attB, no transformants when int region deleted, attL and attR confirmed by PCR, Southern and sequencing) |
| --- | --- | --- |
| attB (L. casei YIT9029) | 1000 |  |
| attP (phiFSW) |  | 1000 |
